Data reported in publication PMC2679042 (2009).

B1: bone sialoprotein (protein)
chain: FSMKNLHRRVKIEDSEENGVFKYRPRYYLYKHAYFYPHLKRFPVQGSSDSSEENGDDSSEEEEEEEETSNEGENNEESNEDEDSEAENTTLSATTLGYGEDATPGTGYTGLAAIQLPKKAGDITNKATKEKESDEEEEEEEEGNENEESEAEVDENEQGINGTSTNSTEAENGNGSSGGDNGEEGEEESVTGANAEDTTETGRQGKGTSKTTTSPNGGFEPTTPPQVYRTTSPPFGKTTTVEYEGEYEYTGANEYDNGYEIYESENGEPRGDNYRAYEDEYSYFKGQGYDGYDGQNYYHHQ

How the values were obtained:
proMMP-2 (Homo sapiens) = proMMP-2 (Homo sapiens) (UniProt P08253); conditions: cited from earlier work
proMMP-2 = target: T1, proMMP-2 (Homo sapiens, UniProt P08253); test: tryptophan fluorescence quenching
T1 chain: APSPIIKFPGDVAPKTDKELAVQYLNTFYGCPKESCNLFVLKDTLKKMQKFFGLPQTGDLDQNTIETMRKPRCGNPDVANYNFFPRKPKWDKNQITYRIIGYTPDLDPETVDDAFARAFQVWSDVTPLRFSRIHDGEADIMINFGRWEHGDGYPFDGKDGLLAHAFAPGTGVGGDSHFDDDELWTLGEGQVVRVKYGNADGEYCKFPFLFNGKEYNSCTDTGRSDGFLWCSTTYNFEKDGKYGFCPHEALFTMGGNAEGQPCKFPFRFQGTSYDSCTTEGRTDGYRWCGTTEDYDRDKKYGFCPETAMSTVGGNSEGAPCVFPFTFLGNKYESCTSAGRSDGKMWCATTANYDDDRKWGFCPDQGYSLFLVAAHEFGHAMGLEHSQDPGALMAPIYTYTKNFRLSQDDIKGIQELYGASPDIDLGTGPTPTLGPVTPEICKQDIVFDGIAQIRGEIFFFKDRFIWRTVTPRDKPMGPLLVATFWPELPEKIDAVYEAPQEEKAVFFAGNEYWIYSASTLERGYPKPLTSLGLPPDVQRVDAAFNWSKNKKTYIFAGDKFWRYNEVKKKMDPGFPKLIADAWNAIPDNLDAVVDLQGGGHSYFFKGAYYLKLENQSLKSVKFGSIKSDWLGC

| Molecule | Kd (proMMP-2 (Homo sapiens)) [nM] | Kd (proMMP-2) [nM] |
| --- | --- | --- |
| bone sialoprotein (from UniProt P21815) | 2.9 | – |
| B1 | – | 270 |
